Assay results reported in patent US20120021972A1 (CADILA HEALTHCARE, published 2012).
Starred links: 1 amine or outer side, 2 acyl side, 3 side chain; linkers in the order of their positions; H or OH if unused. Non-standard residues stand in square brackets, D forms with d. No end group written: not given here. *: point of attachment. ACPP = 2-amino-5-(3-chlorophenyl)pentanoic acid, O=C([C@H](CCCc1cccc(Cl)c1)N[*:1])[*:2]; Bip(2'-Et-4'-OMe) = CCc1cc(OC)ccc1-c1ccc(C[C@H](N)C(=O)O)cc1; Leu(5,5,5,5',5',5'-F6) = N[C@@H](CC(C(F)(F)F)C(F)(F)F)C(=O)O; Nva(5-(3,5-Me2Ph)) = Cc1cc(C)cc(CCC[C@H](N)C(=O)O)c1; 2F‑APPA = 2-amino-5-(2-fluorophenyl)pentanoic acid; αMePhe(2-F) = C[C@](N)(Cc1ccccc1F)C(=O)O; hhPhe = N[C@@H](CCCc1ccccc1)C(=O)O; aThr = C[C@H](O)[C@H](N)C(=O)O; CNB = not defined here; Ac3c = NC1(C(=O)O)CC1; Aib = CC(C)(N)C(=O)O; Moc = COC(=O)*

Experiments:
[1] = biological target: human GLP-1 receptor (human, UniProt P43220 24-463); experiment: cell-based or functional assay
[2] = biological target: human glucagon receptor (human, UniProt P47871 26-477); experiment: cell-based or functional assay

human GLP-1 receptor, sequence (P43220 24-463): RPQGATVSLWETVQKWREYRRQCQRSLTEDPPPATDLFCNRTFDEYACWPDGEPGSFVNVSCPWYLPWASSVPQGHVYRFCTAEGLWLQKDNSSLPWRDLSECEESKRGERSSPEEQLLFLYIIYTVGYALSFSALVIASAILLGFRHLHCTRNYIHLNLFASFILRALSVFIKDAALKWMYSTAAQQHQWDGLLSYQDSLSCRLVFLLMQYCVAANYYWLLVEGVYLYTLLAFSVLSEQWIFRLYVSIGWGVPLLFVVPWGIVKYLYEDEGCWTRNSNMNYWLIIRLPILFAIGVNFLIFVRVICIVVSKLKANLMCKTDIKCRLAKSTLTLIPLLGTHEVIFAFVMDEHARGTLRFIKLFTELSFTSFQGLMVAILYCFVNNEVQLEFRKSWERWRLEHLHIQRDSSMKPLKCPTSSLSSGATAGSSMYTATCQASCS

Row | Binder | cAMP release, % activity, 1 nM [1] [%] | cAMP release, % activity, 10 nM [1] [%] | cAMP release, % activity, 100 nM [1] [%] | cAMP release, % activity, 1 µM [1] [%] | cAMP release, % activity, 10 µM [1] [%] | inhibition of cAMP production, 1 nM [2] [pmol/ml/µg prt] | inhibition of cAMP production, 10 nM [2] [pmol/ml/µg prt] | inhibition of cAMP production, 100 nM [2] [pmol/ml/µg prt] | inhibition of cAMP production, 1 µM [2] [pmol/ml/µg prt] | inhibition of cAMP production, 10 µM [2] [pmol/ml/µg prt]
1 | H[Aib][Leu(5,5,5,5',5',5'-F6)]G[aThr][αMePhe(2-F)][aThr]SD[Bip(2'-Et-4'-OMe)][hhPhe] [Seq. ID. No. 228: H-Aib-(Hfl)-G-T(allo)-(α-Me-2F-Phe)-T(allo)-SD-Bip(OMe)-(APPA)] | 99 | 99 | 99 | 99 | 99 | 19 | 17 | 15 | 14 | 12
2 | Moc-H[Aib]QG[aThr][αMePhe(2-F)][aThr]SD[Bip(2'-Et-4'-OMe)][2F‑APPA] (also: reduced (CH2) bonds between 9-10 and 10-11) [Seq. ID. No. 200: CH3OCO-H-Aib-QG-T(allo)-(α-Me-2F-Phe)-T(allo)-SD-(CH2)-Bip(OMe)-(CH2)-(2F-APPA)] | 55 | 88 | 92 | 99 | 99 | 10 | 8 | 6 | 4 | 1
3 | Moc-H[Aib]QGT[αMePhe(2-F)]TSD[Bip(2'-Et-4'-OMe)][hhPhe] (also: reduced (CH2) bonds between 9-10 and 10-11) [Seq. ID. No. 194: CH3OCO-H-Aib-QGT-(α-Me-2F-Phe)-TSD-(CH2)-Bip(OMe)-(CH2)-(APPA)] | 38 | 77 | 85 | 94 | 97 | 18 | 16 | 12 | 8 | 6
4 | Ac-H[Aib][CNB]GT[αMePhe(2-F)]TSD[Bip(2'-Et-4'-OMe)][2F‑APPA] (reading uncertain) [Seq. ID. No. 207: CH3CO-H-Aib-(CNB)-GT-(α-Me-2F-Phe)-TSD-Bip(OMe)-(2F-APPA)] | 40 | 81 | 89 | 96 | 99 | 0 | 0 | 0 | 0 | 0
5 | H[Aib][CNB]G[aThr][αMePhe(2-F)][aThr]SD[Bip(2'-Et-4'-OMe)][hhPhe] (reading uncertain; also: reduced (CH2) bonds between 9-10 and 10-11) [Seq. ID. No. 202: H-Aib-(CNB)-G-T(allo)-(α-Me-2F-Phe)-T(allo)-SD-(CH2)-Bip(OMe)-(CH2)-(APPA)] | 99 | 99 | 99 | 99 | 99 | 9 | 6 | 5 | 3 | 0
6 | H[Aib]QGTFTSD[Bip(2'-Et-4'-OMe)][ACPP] [Seq. ID. No. 19: H-Aib-QGTFTSD-Bip(OMe)-(ACPP)] | 99 | 99 | 99 | 99 | 99 | 0 | 0 | 0 | 0 | 0
7 | Moc-H[Aib][CNB]GT[αMePhe(2-F)]TSD[Bip(2'-Et-4'-OMe)][hhPhe] (reading uncertain) [Seq. ID. No. 206: CH3OCO-H-Aib-(CNB)-GT-(α-Me-2F-Phe)-TSD-Bip(OMe)-(APPA)] | 39 | 80 | 86 | 95 | 98 | 0 | 0 | 0 | 0 | 0

The next lines start with the values.

Row | cAMP release, % activity, 1 nM [1] [%] | cAMP release, % activity, 10 nM [1] [%] | cAMP release, % activity, 100 nM [1] [%] | cAMP release, % activity, 1 µM [1] [%] | cAMP release, % activity, 10 µM [1] [%] | inhibition of cAMP production, 1 nM [2] [pmol/ml/µg prt] | inhibition of cAMP production, 10 nM [2] [pmol/ml/µg prt] | inhibition of cAMP production, 100 nM [2] [pmol/ml/µg prt] | inhibition of cAMP production, 1 µM [2] [pmol/ml/µg prt] | inhibition of cAMP production, 10 µM [2] [pmol/ml/µg prt] | Binder
8 | 99 | 99 | 99 | 99 | 99 | 17 | 15 | 12 | 8 | 6 | H[Ac3c]QGTFTSD[Bip(2'-Et-4'-OMe)][Nva(5-(3,5-Me2Ph))] [Seq. ID. No. 22: H-(ACP)-QGTFTSD-Bip(OMe)-(ADMP)]
9 | 39 | 80 | 86 | 95 | 98 | 0 | 0 | 0 | 0 | 0 | H[Aib][CNB]G[aThr][αMePhe(2-F)][aThr]SD[Bip(2'-Et-4'-OMe)][hhPhe] (reading uncertain; also: thioamide bonds between residues 9-10 and 10-11) [Seq. ID. No. 178: H-Aib-(CNB)-G-T(allo)-(α-Me-2F-Phe)-T(allo)-SD-(C═S)-Bip(OMe)-(C═S)-(APPA)]
10 | 96 | 99 | 99 | 99 | 99 | 4 | 2 | 0 | 0 | 0 | Ac-H[Aib][CNB]GT[αMePhe(2-F)]TSD[Bip(2'-Et-4'-OMe)][hhPhe] (reading uncertain) [Seq. ID. No. 205: CH3CO-H-Aib-(CNB)-GT-(α-Me-2F-Phe)-TSD-Bip(OMe)-(APPA)]
11 | 96 | 99 | 99 | 99 | 99 | 6 | 5 | 2 | 0 | 0 | H[Aib][CNB]G[aThr][αMePhe(2-F)][aThr]SD[Bip(2'-Et-4'-OMe)][2F‑APPA] (reading uncertain; also: reduced (CH2) bonds Z9-Z10 and Z10-Z11) [Seq. ID. No. 204: H-Aib-(CNB)-G-T(allo)-(α-Me-2F-Phe)-T(allo)-SD-(CH2)-Bip(OMe)-(CH2)-(2F-APPA)]
12 | 96 | 99 | 99 | 99 | 99 | 21 | 19 | 18 | 18 | 16 | H[Aib][CNB]G[aThr][αMePhe(2-F)][aThr]SD[Bip(2'-Et-4'-OMe)][2F‑APPA] (reading uncertain; also: thioamide bond between residues 10 and 11) [Seq. ID. No. 168: H-Aib-(CNB)-G-T(allo)-(α-Me-2F-Phe)-T(allo)-SD-Bip(OMe)-(C═S)-(2F-APPA)]
